Test results reported in the supplement of paper PMC10899765.

Tests used:
Conditions in all cases: 20 nM; 72 h
[1] = test system: MCF10A; assay: percent viability (nuclei count relative to siNT); higher = more viable cells
Description: (§1)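 After 72 h, cells were fixed and stained with Hoechst and anti-fibrillarin, and nucleoli per nucleus were counted with CellProfiler. Values are plate-adjusted percent effect for the one-nucleolus and 5+ nucleoli phenotypes, normalised to siNT (0%) and to the positive controls siNOL11 or siKIF11 (100%), as the mean of biological triplicates. Percent viability is the nuclei count relative to siNT.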

[2] = test system: MCF10A; assay: 5+ nucleoli phenotype percent effect (relative to siNT 0% and siKIF11 100%); higher = more cells with five or more nucleoli
Description: as §1

[3] = test system: MCF10A; assay: one-nucleolus phenotype percent effect (relative to siNT 0% and siNOL11 100%); higher = more cells with one nucleolus (ribosome biogenesis inhibition)
Description: as §1

Sequence	percent viability [1] [%]	5+ nucleoli phenotype percent effect [2] [%]	one-nucleolus phenotype percent effect [3] [%]
AUCCCUUGCAGGGGCUGUUGGGU [hsa-miR-623]	91.7	53.3	-13.1
AUCCUCUCUUCCCUCCUCCCAG [hsa-miR-7111-3p]	47.3	-40	3.35
UUGGGAGGGAAGACAGCUGGAGA [hsa-miR-6780a-5p]	13.4	-30.2	55
UCGGCCUGGGGAGGAGGAAGGG [hsa-miR-7107-5p]	77.4	26.1	-28.2
UCCUGUCCCUGUCUCCUACAG [hsa-miR-6748-3p]	47	17	-15.9
UGUGAUAUCAUGGUUCCUGGGA [hsa-miR-3689a-5p]	37.9	-5.22	6.87
GGUGGUUGAGGCUGCAGUAAGU [hsa-miR-1273g-5p]	49.2	22.4	-13.4
CUGGGAGAAGAGUGGUGAAGA [hsa-miR-6788-5p]	24.9	-4.55	10
AUCAACAGACAUUAAUUGGGCGC [hsa-miR-421]	61.3	-13.6	23.1
CUGAAGUGAUGUGUAACUGAUCAG [hsa-miR-573]	69	-8.65	-6.66
UGCGCCUCGGGUGAGCAUG [hsa-miR-668-5p]	43.2	37.3	-14.2
UGGAGAUCCAGUGCUCGCCCGAU [hsa-miR-4683]	56.7	-20.1	24.4
UCACUGUUCAGACAGGCGGA [hsa-miR-1208]	112	20.6	-21.6
UUGCUUGAACCCAGGAAGUGGA [hsa-miR-1273e]	29	-48.1	53.6
UGAGGGAGUGGGUGGGAGG [hsa-miR-6127]	39.8	-15.1	3.31
